Data as given in patent US20260258113A1, “BETA GLOBIN MIMETIC PEPTIDES AND THEIR USE” (THE UNITED STATES OF AMERICA, AS REPRESENTED BY THE …, priority 2022, published 2026).

Molecular target: T1, alpha globin (Homo sapiens, UniProt P69905)
T1 construct: The equilibrium dissociation constant of full-length alpha globin and the eNOS oxygenase domain had not previously been quantified
Test: Protein-protein binding affinity by biolayer interferometry
Details: binding to immobilized biotinylated alpha globin
Procedure: FIGS. 2A-2D: A) Beta globin, eNOS, and cytochrome B5 reductase 3 (Cyb5R3) co-immunoprecipitate with alpha globin in lysates of perfused human omental arteries. P1, P2, and P3 each represent an independent replicate consisting of pooled flash-frozen arteries from two donors (n=30 arteries from each donor). P1 and P2 were incubated with an alpha globin antibody to immunoprecipitate alpha globin and bound protein partners. P3 was incubated instead with an IgG antibody as a negative control. Western blot was performed on the immunoprecipitate with antibodies for alpha globin, beta globin, Cyb5R3, or eNOS. Myc-eNOS purified from a cell overexpression lysate served as a positive control for eNOS. RBC lysate served as a positive control for alpha and beta globin. B) The red blood cell protein Band 3/SLC4A1 is not detected in protein lysates from pooled human omental arteries. Prior to immunoprecipitation, whole protein lysate was loaded into a gel and probed by Western Blot for SLC4A1 and alpha globin. […] C-D) Biolayer interferometry sensorgram traces of the binding of eNOS or AHSP to alpha globin showing association and dissociation; raw datasets shown in black, fitting curves shown. […]
Protein-protein binding affinity assessed by biolayer interferometry: Biolayer interferometry experiments were performed on the automated eight-channel Octet RED96 instrument (ForteBio). […]

T1 sequence (P69905 whole entry, the tested form may be a part): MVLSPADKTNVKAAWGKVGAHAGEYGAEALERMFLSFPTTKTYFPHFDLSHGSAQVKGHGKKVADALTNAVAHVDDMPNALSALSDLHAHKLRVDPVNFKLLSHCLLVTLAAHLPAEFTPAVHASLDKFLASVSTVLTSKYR

B1: eNOSox: recombinant human eNOS oxidase domain (protein)
chain: PKFPRVKNWEVGSITYDTLSAQAQQDGPCTPRRCLGSLVFPRKLQGRPSPGPPAPEQLLSQARDFINQYYSSIKRSGSQAHEQRLQEVEAEVAATGTYQLRESELVFGAKQAWRNAPRCVGRIQWGKLQVFDARDCRSAQEMFTYICNHIKYATNRGNLRSAITVFPQRCPGRGDFRIWNSQLVRYAGYRQQDGSVRGDPANVEITELCIQHGWTPGNGRFDVLPLLLQAPDDPPELFLLPPELVLEVPLEHPTLEWFAALGLRWYALPAVSNMLLEIGGLEFPAAPFSGWYMSTEIGTRNLCDPHRYNILEDVAVCMDLDTRTTSSLWKDKAAVEINVAVLHSYQLAKVTIVDHHAATASFMKHLENEQKARGGCPADWAWIVPPISGSLTPVFHQEMVNYFLSPAFRYQPDPWKGSAAKGTGITR
With B1 the Kd was 1310 nM.
